The values below come from article PMC11737852 (2025).

B1: Myc-USP5 [not stated] / Flag-IRF3 [not stated] (parent complex)
chain 1: MAELSEEALLSVLPTIRVPKAGDRVHKDECAFSFDTPESEGGLYICMNTFLGFGKQYVERHFNKTGQRVYLHLRRTRRPKEEDPATGTGDPPRKKPTRLAIGVEGGFDLSEEKFELDEDVKIVILPDYLEIARDGLGGLPDIVRDRVTSAVEALLSADSASRKQEVQAWDGEVRQVSKHAFSLKQLDNPARIPPCGWKCSKCDMRENLWLNLTDGSILCGRRYFDGSGGNNHAVEHYRETGYPLAVKLGTITPDGADVYSYDEDDMVLDPSLAEHLSHFGIDMLKMQKTDKTMTELEIDMNQRIGEWELIQESGVPLKPLFGPGYTGIRNLGNSCYLNSVVQVLFSIPDFQRKYVDKLEKIFQNAPTDPTQDFSTQVAKLGHGLLSGEYSKPVPESGDGERVPEQKEVQDGIAPRMFKALIGKGHPEFSTNRQQDAQEFFLHLINMVERNCRSSENPNEVFRFLVEEKIKCLATEKVKYTQRVDYIMQLPVPMDAALNKEELLEYEEKKRQAEEEKMALPELVRAQVPFSSCLEAYGAPEQVDDFWSTALQAKSVAVKTTRFASFPDYLVIQIKKFTFGLDWVPKKLDVSIEMPEELDISQLRGTGLQPGEEELPDIAPPLVTPDEPKGSLGFYGNEDEDSFCSPHFSSPTSPMLDESVIIQLVEMGFPMDACRKAVYYTGNSGAEAAMNWVMSHMDDPDFANPLILPGSSGPGSTSAAADPPPEDCVTTIVSMGFSRDQALKALRATNNSLERAVDWIFSHIDDLDAEAAMDISEGRSAADSISESVPVGPKVRDGPGKYQLFAFISHMGTSTMCGHYVCHIKKEGRWVIYNDQKVCASEKPPKDLGYIYFYQRVAS
chain 2: MGTPKPRILPWLVSQLDLGQLEGVAWVNKSRTRFRIPWKHGLRQDAQQEDFGIFQAWAEATGAYVPGRDKPDLPTWKRNFRSALNRKEGLRLAEDRSKDPHDPHKIYEFVNSGVGDFSQPDTSPDTNGGGSTSDTQEDILDELLGNMVLAPLPDPGPPSLAVAPEPCPQPLRSPSLDNPTPFPNLGPSENPLKRLLVPGEEWEFEVTAFYRGRQVFQQTISCPEGLRLVGSEVGDRTLPGWPVTLPDPGMSLTDRGVMSYVRHVLSCLGGGLALWRAGQWLWAQRLGHCHTYWAVSEELLPNSGHGPDGEVPKDKEGGVFDLGPFIVDLITFTEGSGRSPRYALWFCVGESWPQDQPWTKRLVMVKVVPTCLRALVEMARVGGASSLENTVDLHISNSHPLSLTSDQYKAYLQDLVEGMDFQGPGES

Variants of B1 are the subject of this test. Kind of test: in situ PLA; HEK293T cells co-transfected for 24 h, then infected with SeV (0.1 MOI) for 6 h; parent: 12; read off a plot.
Consider chain 1 C335A, for which the response is ~12 complex number/cell.
